Data set [1] deals with the molecule itself. Kind of data set: SEC; analytical size exclusion chromatography on Superdex 200 10/300, 24°C, 50 mM Hepes pH 7.5/0.25 M NaCl; elution volume against protein standards. (In gel filtration, larger molecules generally elute earlier.)
Data set [2] deals with the molecule itself. Kind of data set: crystal structure; truncated yNAGK, space group P212121, four subunits in the asymmetric unit; with NAG, with NAG and arginine, or ligand-free; grown at 4°C, 50 mM Na acetate pH 4.6, 0.2 M Na-malonate, 2% PEG-8K.

The stoichiometry N is the number of molecules, sites or subunits per partner or assembly.

B1: complete mature yeast N-acetyl-L-glutamate kinase (yNAGK), residues 58-513 (enzyme, Saccharomyces cerevisiae, UniProt Q01217 58-513, looked up)
chain: VSSTNGFSATRSTVIQLLNNISTKREVEQYLKYFTSVSQQQFAVIKVGGAIISDNLHELASCLAFLYHVGLYPIVLHGTGPQVNGRLEAQGIEPDYIDGIRITDEHTMAVVRKCFLEQNLKLVTALEQLGVRARPITSGVFTADYLDKDKYKLVGNIKSVTKEPIEASIKAGALPILTSLAETASGQMLNVNADVAAGELARVFEPLKIVYLNEKGGIINGSTGEKISMINLDEEYDDLMKQSWVKYGTKLKIREIKELLDYLPRSSSVAIINVQDLQKELFTDSGAGTMIRRGYKLVKRSSIGEFPSADALRKALQRDAGISSGKESVASYLRYLENSDFVSYADEPLEAVAIVKKDTNVPTLDKFVCSDAAWLNNVTDNVFNVLRRDFPALQWVVSENDANIAWHFDKSQGSYLKGGKVLFWYGIDDINTISELVENFVKSCDTASTLNSSASS
modifications: for crystallization only: surface-exposed lysine residues reductively dimethylated
notes: N-acetyl-L-glutamate kinase of Saccharomyces cerevisiae, made by processing of the polyprotein precursor encoded by ARG5,6 (Uniprot Q01217); Amplified from pYB3 and inserted into pTrc99a; Methylated protein is stated for crystal NAGK1; Nothing says that the protein of the size exclusion run was methylated; also called complete yNAGK; complete mature yNAGK; source: E. coli BL21 (DE3), purified …
Take B1: in data set [1], the “stoichiometry N” value stood at 4.

B2: truncated yNAGK spanning residues 58 to 356 (AAK domain, lacking the C-terminal DUF619 domain) (domain or fragment, Saccharomyces cerevisiae, UniProt Q01217 58-356, looked up)
chain: VSSTNGFSATRSTVIQLLNNISTKREVEQYLKYFTSVSQQQFAVIKVGGAIISDNLHELASCLAFLYHVGLYPIVLHGTGPQVNGRLEAQGIEPDYIDGIRITDEHTMAVVRKCFLEQNLKLVTALEQLGVRARPITSGVFTADYLDKDKYKLVGNIKSVTKEPIEASIKAGALPILTSLAETASGQMLNVNADVAAGELARVFEPLKIVYLNEKGGIINGSTGEKISMINLDEEYDDLMKQSWVKYGTKLKIREIKELLDYLPRSSSVAIINVQDLQKELFTDSGAGTMIRRGYKLVK
notes: A Se-Met-substituted form was used for phasing only (not deposited); also called truncated AAK; yNAGK lacking its C-terminal domain; source: E. coli BL21 (DE3), purified (HisTrap); not shown: MGH6 His-tag, N-terminal, kept
Take B2: the “stoichiometry N” value in data set [2] turned out to be 4.
